In the nanobody polyreactivity screen of Harvey et al. (2022):

Test: yeast display, Sf9 membrane polyspecificity reagent, FACS + sequencing; frameworks hold sequencing errors
How it was run: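 Galactose-induced (36–48 hours) yeast carrying a synthetic nanobody display library were exposed to 10% biotinylated, detergent-solubilized Sf9 membrane reagent at 4 °C for 1 hour. FACS followed streptavidin microbead enrichment, using low and high (top ~1%) gates for expression (anti-HA) and reagent binding (streptavidin). Colony PCR, MiSeq 2 × 250 sequencing and CDR-length filtering followed. Labels for polyreactivity reflect the gate of origin.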

Row | Sequence | polyreactivity (PSR sort gate)
1 | QVQLVESGGGLVQAGGSLRLSCAASGRILVSYAMGWYRQAPGKERELVAAISRSGGSTYYADSVKGRFTISRDNAKNSVYLQMNSLKPEDSAVYYCNVYRFSRYDYWGQGTQVTVSS | high polyreactivity
2 | QVQLVESGGGLVQAGGSLRLSCAASGRILWAYAMGWYRQAPGKEREFVAAISWSTGSTYYADSVKGRFTISRDNAKNTVNIQLNSLQPDDTAVYYCAAQLAKTIRGRGYNSWGQGTQVTVSS | low polyreactivity
3 | QVQLVESGGGLVQAGGSLRLSCAASGRILYHYAMGWYRQAPGKERELVAAITFSGDTTYYADSVKGRFTISRDNAKNTVYLQMNSLKPEDTAVYYCNTDYYWNYVSRLYDYWGQGTQVTVSS | high polyreactivity
4 | QVQLVESGGGLVQAGGSLRLSCAASGRILYPYAMGWYRQAPGKERELVAAISSRSANTYYADSVKGRFTISRDNAKNTVYLQMNSLKPEDTAVYYCAARSLGLGFGHWGQGTQVTVSS | high polyreactivity
5 | QVQLVESGGGLVQAGGSLRLSCAASGRILYRYVMGRYRQAPGKERELVAGISWSGGSTYYADSVKGRFTISSDTAKNTVYLQMNSLKPEVTAVYYCASTFRTYAPRPYQGDYWGQGTQVTVSS | low polyreactivity
6 | QVQLVESGGGLVQAGGSLRLSCAASGRILYSYAMGWYRQEPGQEREFVAAIRRSGGSTYYADSVKGRFTISRDNAQNTVYLQMNSLKPEETAVDYCAAGRRSSGSYDYWGQGTQVTVSS | high polyreactivity
7 | QVQLVESGGGLVQAGGSLRLSCAASGRILYVNAMGWSRQAPGKERELVAAISWRGGRTYYADSVKGRFTISRDTAKNTVYLQMNSLKPEDTAVYYCAARARGGYQRDYWGQGTQVTVSS | high polyreactivity
8 | QVQLVESGGGLVQAGGSLRLSCAASGRILYYYAMGWSRQAPGKERELVAGITTDDSTNYADSVKGRFTISRDNAKNTVYLQMNSLKPEDTAVYYCAAKYVHGEYDYWGQGTQVTVSS | low polyreactivity
9 | QVQLVESGGGLVQAGGSLRLSCAASGRILYYYAMGWYRQAPGKERELVAAITWGGGSTYYADSVKGRFTISRDNAKKSVYLQMNSLTPEETAVYYCNRTFRSRLPTSRGYEYWGQGTQVTVSS | low polyreactivity
10 | QVQLVESGGGLVQAGGSLRLSCAASGRIRYAMGWYRQAPGKERELVAGIRWSGTSTYYADSVKGRFTISRDNAKNTVYLQMNSLKPEDTAVYYCNAKAQSRYVRYGYWGQGTQVSVSS | high polyreactivity
11 | QVQLVESGGGLVQAGGSLRLSCAASGRISDFYAMGWNRQAPGKEREFVAAMSWSGGSTSYADSVKGRFTISRDNAKNTVYLQMNSLKPEDTSVYYCSAKGSRGNSAWYGYWGQGTQVTVSS | high polyreactivity
12 | QVQLVESGGGLVQAGGSLRLSCAASGRISDRNAMGWYRQAPGKERELVATIRSGGSTNYADSVKGRFTISPDNAMNTVYLQMNSLKPEDTAVYYCATAKLTWRSQGLDYWGQGTQVTVSS | low polyreactivity
13 | QVQLVESGGGLVQAGGSLRLSCAASGRISGINVMGWYRQAPGKERELVAAISRSGARTYYADSVKGRFTISRDNAKNTVYLQMNSLKPEDTAVYYCNAANLKYPKYVQGDYWGQGTQVTVSS | high polyreactivity
14 | QVQLVESGGGLVQAGGSLRLSCAASGRISHYNAMGWYRQAPGKERELVAAISSRGGSTYYADSVKGRFTISRDIAKNTVYLQMNSLKPEDTAVYYCADTAGYWGQGTQVTVSS | high polyreactivity
15 | QVQLVESGGGLVQAGGSLRLSCAASGRISIWYDMGWYRQAPGKERELVASITSGGSTYADSVKGRFTISRDNAKNTVYLQMNSLKPEDTAVYYCAADEAPYGTSEQRHSRFSHWGQGTQVTVSS | low polyreactivity
16 | QVQLVESGGGLVQAGGSLRLSCAASGRISLRILWDGIDRRLGKKGSWLPLLTNTGSTNYADSVKGRFTISRDNAKNTVYLQMNSLKPEDTAVYDCNADPTGGSSYPAYFEYDYWGQGTQVTVSS | low polyreactivity
17 | QVQLVESGGGLVQAGGSLRLSCAASGRISLSNAMGWYKQAPGKEREFVAAITKRSDRTYYADSVKGRFTISRDNAKNTVYLQMNSLKPEDTAVYYCAAKPLFGTRDDYWGQGTQVTVSS | low polyreactivity
18 | QVQLVESGGGLVQAGGSLRLSCAASGRISPSYAMGWYRHATGKERELVAAISRGGSTSYADSVKGLFTISRDNAKNTVYLQMNSLKPEDTAVYYCSTRGPRYRNYYWGQGTQVTVSS | high polyreactivity
19 | QVQLVESGGGLVQAGGSLRLSCAASGRISRLNAMGWYRQAPGKERELVATISGRGGGTYYADSVKGRFTISRDNAKNTVYLQMNSLKPEDTAVYYCAVRGLYQGRRRYSSEYDYWGQGTQVTVSS | high polyreactivity
20 | QVQLVESGGGLVQAGGSLRLSCAASGRISRTNAMGWYRQAPGKERELVATITRGGNTNYADSVKGRFTISRDNAKNTVYLPMNSLKPEDTAVYYCAALGRYLRTYRGYVWQFDSWGQGTKVTVSS | high polyreactivity
21 | QVQLVESGGGLVQAGGSLRLSCAASGRISRVYAMGWYRQAPGKERELVASITGRGGSTYYADSVKGRFTISRDNAKNTVYLQMNSLKPEDTAVYYCAALIDVITGQYDYWGQGTQVTVSS | high polyreactivity
22 | QVQLVESGGGLVQAGGSLRLSCAASGRISSSYAMGWYRQAPGKERELVAAIDNSDDTTYYADSVKGRFTISLDNAKNTVYLQMNSLKPEDTAVYSCATLVYSSELGYWGQGTQVTVSS | high polyreactivity
23 | QVQLVESGGGLVQAGGSLRLSCAASGRISSSYDMGWYIQAPAKDRELVAAISSGSSTYYAHSVKVRFTISRDNAKNTVYLQMNSLKREDTAVYYCAKLHYAHYWGQGTQVTVSS | low polyreactivity
24 | QVQLVESGGGLVQAGGSLRLSCAASGRISTRYTMGWYRQAPGKERELVAAISGNAGRTYYADSVKGRFTISRDNAKNTVYVQMNSLKPADTAVYYCARESGYRAYEIQFYYWGQGTQVTVSS | high polyreactivity
25 | QVQLVESGGGLVQAGGSLRLSCAASGRISTTYSMGWYRPAPGKERELVAAITIGGGTNYADSVKGRFTISRDNAKNTVYLQMNSLKPEDTAVFYCNADRTASFAYDYWGQGTQVTVSS | low polyreactivity
26 | QVQLVESGGGLVQAGGSLRLSCAASGRISVKYAMGWYRQAPGKERELVAANDSSGGSTSYADSVKGRFTISRDNAKNTVYLQMNSLKPEDTAVYYCADDTWYRAGYFVFYYDYWGQGTQVTVSS | low polyreactivity
27 | QVQLVESGGGLVQAGGSLRLSCAASGRISVRNTMGWYRQAPGKERELVARISSTGGSTYYADSVKGRFTISRDNAKNTVYLQMNSLKPEDTAVYYCNAKYYTRYPYLGKGDYWGQGTQVTVSS | high polyreactivity
28 | QVQLVESGGGLVQAGGSLRLSCAASGRISVTYAMGWYRQAPGKERELVAAINTSGGTTYYADSVKGRFTISRDNAKNTVYLQMNSLKPEDTAVYYCNAVFYGGVGDNDYWGQGTQVTVSS | high polyreactivity
29 | QVQLVESGGGLVQAGGSLRLSCAASGRISWGYAMGWYRPAPGKERELVAVINFNGGRTYYADSVKGRFTISRDNAKNTVYLQMNSLKPEDTAVYYCAADSGYEYDYWGQGTQVTVSS | low polyreactivity
30 | QVQLVESGGGLVQAGGSLRLSCAASGRISYLYTMGWYRQAPGKERELVAAIRWRDGSTYYADSVKGRFTISRDNAKNTVYLQMNSLKPEDTAVYYCASTPVGFYWYDYWGQGTQVTVSS | low polyreactivity
